# ± gives the uncertainty stated by the source.
# Assay: abundance fitness (aPCA) (normalised: wild type 0, dead -1); higher = more abundant; growth selection in yeast, the domain comes from the species named
# Conditions: Homo sapiens
row,Substance,abundance fitness
1,"BAG family molecular chaperone regulator 3 A13C, O95817",-0.603 ± 0.46
2,"BAG family molecular chaperone regulator 3 A13D, O95817",0.279 ± 0.07
3,"BAG family molecular chaperone regulator 3 A13E, O95817",-0.47 ± 0.28
4,"BAG family molecular chaperone regulator 3 A13G, O95817",-0.412 ± 0.094
5,"BAG family molecular chaperone regulator 3 A13K, O95817",0.174 ± 0.17
6,"BAG family molecular chaperone regulator 3 A13L, O95817",0.127 ± 0.13
7,"BAG family molecular chaperone regulator 3 A13M, O95817",-0.172 ± 0.31
8,"BAG family molecular chaperone regulator 3 A13Q, O95817",-0.167 ± 0.086
9,"BAG family molecular chaperone regulator 3 A13R, O95817",-0.316 ± 0.13
10,"BAG family molecular chaperone regulator 3 A13S, O95817",-0.321 ± 0.2
11,"BAG family molecular chaperone regulator 3 A13T, O95817",0.169 ± 0.2
12,"BAG family molecular chaperone regulator 3 A13V, O95817",0.328 ± 0.087
13,"BAG family molecular chaperone regulator 3 A13W, O95817",-0.774 ± 0.32
14,"BAG family molecular chaperone regulator 3 A13Y, O95817",-0.047 ± 0.46
15,"BAG family molecular chaperone regulator 3 D18C, O95817",-0.009 ± 0.15
16,"BAG family molecular chaperone regulator 3 D18E, O95817",-0.058 ± 0.074
17,"BAG family molecular chaperone regulator 3 D18F, O95817",-0.343 ± 0.23
18,"BAG family molecular chaperone regulator 3 D18H, O95817",-0.394 ± 0.17
19,"BAG family molecular chaperone regulator 3 D18I, O95817",-0.205 ± 0.27
20,"BAG family molecular chaperone regulator 3 D18K, O95817",0.22 ± 0.18
21,"BAG family molecular chaperone regulator 3 D18L, O95817",-0.313 ± 0.12
22,"BAG family molecular chaperone regulator 3 D18M, O95817",-0.406 ± 0.26
23,"BAG family molecular chaperone regulator 3 D18N, O95817",0.148 ± 0.068

row,Substance,abundance fitness
1,"BAG family molecular chaperone regulator 3 D18P, O95817",0.065 ± 0.092
2,"BAG family molecular chaperone regulator 3 D18Q, O95817",0.012 ± 0.19
3,"BAG family molecular chaperone regulator 3 D18R, O95817",-0.116 ± 0.09
4,"BAG family molecular chaperone regulator 3 D18S, O95817",-0.047 ± 0.13
5,"BAG family molecular chaperone regulator 3 D18T, O95817",0.03 ± 0.11
6,"BAG family molecular chaperone regulator 3 D18W, O95817",-0.317 ± 0.16
7,"BAG family molecular chaperone regulator 3 D18Y, O95817",-0.641 ± 0.35
8,"BAG family molecular chaperone regulator 3 D20A, O95817",-0.557 ± 0.15
9,"BAG family molecular chaperone regulator 3 D20C, O95817",-0.2 ± 0.11
10,"BAG family molecular chaperone regulator 3 D20E, O95817",-0.018 ± 0.1
11,"BAG family molecular chaperone regulator 3 D20F, O95817",-0.09 ± 0.32
12,"BAG family molecular chaperone regulator 3 D20G, O95817",0.08 ± 0.06
13,"BAG family molecular chaperone regulator 3 D20I, O95817",-0.558 ± 0.37
14,"BAG family molecular chaperone regulator 3 D20K, O95817",-0.429 ± 0.23
15,"BAG family molecular chaperone regulator 3 D20L, O95817",-0.495 ± 0.088
16,"BAG family molecular chaperone regulator 3 D20M, O95817",0.365 ± 0.15
17,"BAG family molecular chaperone regulator 3 D20N, O95817",0.044 ± 0.13
18,"BAG family molecular chaperone regulator 3 D20P, O95817",-0.22 ± 0.19
19,"BAG family molecular chaperone regulator 3 D20Q, O95817",-0.789 ± 0.33
20,"BAG family molecular chaperone regulator 3 D20R, O95817",-0.228 ± 0.085
21,"BAG family molecular chaperone regulator 3 D20S, O95817",0.15 ± 0.087
22,"BAG family molecular chaperone regulator 3 D20V, O95817",-0.241 ± 0.074
23,"BAG family molecular chaperone regulator 3 D20W, O95817",-0.42 ± 0.15

row,Substance,abundance fitness
1,"BAG family molecular chaperone regulator 3 D20Y, O95817",-0.479 ± 0.3
2,"BAG family molecular chaperone regulator 3 D31A, O95817",-0.22 ± 0.12
3,"BAG family molecular chaperone regulator 3 D31C, O95817",-0.334 ± 0.074
4,"BAG family molecular chaperone regulator 3 D31E, O95817",0.166 ± 0.077
5,"BAG family molecular chaperone regulator 3 D31F, O95817",-1.13 ± 0.34
6,"BAG family molecular chaperone regulator 3 D31G, O95817",-0.491 ± 0.084
7,"BAG family molecular chaperone regulator 3 D31K, O95817",-0.477 ± 0.28
8,"BAG family molecular chaperone regulator 3 D31L, O95817",-0.732 ± 0.1
9,"BAG family molecular chaperone regulator 3 D31M, O95817",-0.182 ± 0.15
10,"BAG family molecular chaperone regulator 3 D31N, O95817",-0.813 ± 0.26
11,"BAG family molecular chaperone regulator 3 D31P, O95817",-0.886 ± 0.22
12,"BAG family molecular chaperone regulator 3 D31Q, O95817",-0.557 ± 0.22
13,"BAG family molecular chaperone regulator 3 D31R, O95817",-0.473 ± 0.071
14,"BAG family molecular chaperone regulator 3 D31S, O95817",-0.67 ± 0.2
15,"BAG family molecular chaperone regulator 3 D31T, O95817",-0.56 ± 0.18
16,"BAG family molecular chaperone regulator 3 D31V, O95817",-0.433 ± 0.12
17,"BAG family molecular chaperone regulator 3 D31W, O95817",-0.33 ± 0.13
18,"BAG family molecular chaperone regulator 3 D41A, O95817",-0.82 ± 0.23
19,"BAG family molecular chaperone regulator 3 D41C, O95817",-0.641 ± 0.42
20,"BAG family molecular chaperone regulator 3 D41E, O95817",-0.874 ± 0.2
21,"BAG family molecular chaperone regulator 3 D41G, O95817",-0.621 ± 0.14
22,"BAG family molecular chaperone regulator 3 D41H, O95817",-0.541 ± 0.095
23,"BAG family molecular chaperone regulator 3 D41I, O95817",-0.622 ± 0.45

row,Substance,abundance fitness
1,"BAG family molecular chaperone regulator 3 D41K, O95817",-1.05 ± 0.41
2,"BAG family molecular chaperone regulator 3 D41L, O95817",-1.1 ± 0.17
3,"BAG family molecular chaperone regulator 3 D41M, O95817",-1 ± 0.45
4,"BAG family molecular chaperone regulator 3 D41N, O95817",-0.664 ± 0.12
5,"BAG family molecular chaperone regulator 3 D41P, O95817",-0.65 ± 0.16
6,"BAG family molecular chaperone regulator 3 D41Q, O95817",-0.364 ± 0.32
7,"BAG family molecular chaperone regulator 3 D41R, O95817",-0.59 ± 0.084
8,"BAG family molecular chaperone regulator 3 D41S, O95817",-0.868 ± 0.27
9,"BAG family molecular chaperone regulator 3 D41T, O95817",-0.612 ± 0.23
10,"BAG family molecular chaperone regulator 3 D41V, O95817",-0.851 ± 0.099
11,"BAG family molecular chaperone regulator 3 D41W, O95817",-1.16 ± 0.44
12,"BAG family molecular chaperone regulator 3 D51A, O95817",-0.682 ± 0.12
13,"BAG family molecular chaperone regulator 3 D51C, O95817",-0.48 ± 0.22
14,"BAG family molecular chaperone regulator 3 D51F, O95817",-0.234 ± 0.48
15,"BAG family molecular chaperone regulator 3 D51G, O95817",-0.62 ± 0.19
16,"BAG family molecular chaperone regulator 3 D51H, O95817",-0.262 ± 0.42
17,"BAG family molecular chaperone regulator 3 D51K, O95817",-0.037 ± 0.3
18,"BAG family molecular chaperone regulator 3 D51L, O95817",-0.859 ± 0.2
19,"BAG family molecular chaperone regulator 3 D51M, O95817",-0.658 ± 0.36
20,"BAG family molecular chaperone regulator 3 D51Q, O95817",-0.602 ± 0.42
21,"BAG family molecular chaperone regulator 3 D51R, O95817",-0.568 ± 0.17
22,"BAG family molecular chaperone regulator 3 D51S, O95817",-0.383 ± 0.14

# — the Human Domainome abundance scans (Beltran et al. 2025)
